According to US20240287172A1 (SCIRHOM, published 2024):
Substitutions are numbered along the chain they refer to.

Tests used:
Assay in all cases: FACS, MEF-DKO cells, 3 µg/ml
[1] = molecular target: T1, hiR2-FL-D528I-T7 (human, UniProt Q6PJF5 1-856)
T1 sequence: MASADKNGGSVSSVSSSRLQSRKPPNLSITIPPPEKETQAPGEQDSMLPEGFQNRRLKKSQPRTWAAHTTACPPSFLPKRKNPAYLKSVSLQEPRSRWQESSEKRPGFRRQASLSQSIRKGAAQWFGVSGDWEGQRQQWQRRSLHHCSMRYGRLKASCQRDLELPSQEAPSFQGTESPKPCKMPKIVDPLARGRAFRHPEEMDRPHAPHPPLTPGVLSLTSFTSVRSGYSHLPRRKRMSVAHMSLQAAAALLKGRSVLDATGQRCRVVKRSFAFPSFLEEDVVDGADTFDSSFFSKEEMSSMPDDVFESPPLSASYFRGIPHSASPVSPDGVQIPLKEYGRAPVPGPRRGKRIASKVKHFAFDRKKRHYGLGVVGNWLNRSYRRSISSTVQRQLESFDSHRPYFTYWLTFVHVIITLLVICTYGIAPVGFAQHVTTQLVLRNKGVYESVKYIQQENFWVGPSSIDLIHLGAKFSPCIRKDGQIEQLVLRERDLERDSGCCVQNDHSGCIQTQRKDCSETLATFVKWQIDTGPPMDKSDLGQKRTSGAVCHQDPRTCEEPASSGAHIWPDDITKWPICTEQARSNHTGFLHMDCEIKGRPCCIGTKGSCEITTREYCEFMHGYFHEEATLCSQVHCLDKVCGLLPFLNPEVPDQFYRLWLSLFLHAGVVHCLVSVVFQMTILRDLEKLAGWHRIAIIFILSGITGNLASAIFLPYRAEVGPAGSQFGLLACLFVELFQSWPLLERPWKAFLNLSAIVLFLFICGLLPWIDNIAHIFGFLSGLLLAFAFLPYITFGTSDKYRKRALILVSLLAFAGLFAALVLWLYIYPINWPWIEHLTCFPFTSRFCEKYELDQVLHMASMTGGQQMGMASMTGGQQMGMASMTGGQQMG

[2] = molecular target: T2, hiR2-FL-F523W-T7 (human, UniProt Q6PJF5 1-856)
T2 sequence: T1 sequence with F523W, I528D

[3] = molecular target: T3, hiR2-FL-T522V-T7 (human, UniProt Q6PJF5 1-856)
T3 sequence: T1 sequence with T522V, I528D

Measured: loss of binding vs wild type

B1: antibody 48 (antibody, V domains shown)
VH: QVQLQQSGTELVRPGTSVKVSCKASGYAFTNYLIEWVKQRPGQGLEWIGVINPGSGFTKYNEKFKGKATLTADKSSSTVYMHLSSLTSEDSAVYFCARGLYRAMDYWGQGTSVTVSS
VL: DIQMTQSPASQSASLGESVTITCLASQTIATWLAWYQQKPGKSPQLLIYGATTLADGVPSRFSGGGSGTKFSFKISSLQAEDFVSYYCQQLYSTPYTFGGGTKLEIK
notes: mouse IgG, kappa light chain; also called clone #48; purified antibody 48
≥ 30%: all assays above

B2: antibody 50 (antibody, V domains shown)
VH: B1 VH with T9A, T16A, T30S, V79A, H82Q
VL: B1 VL with A30G, G50A, T52A, T53S, S85N, L91I
notes: mouse IgG, kappa light chain; also called clone #50; purified antibody 50
≥ 30%: all assays above
